This is an account of results in article PMC4297639 (Nature protocols, 2014).

In this assay the target is BACE2 (aspartic protease, recombinant, wild-type) (Homo sapiens (assumed; ), UniProt Q9Y5Z0). Put plainly: crystal structure.
BACE2 (aspartic protease, recombinant, wild-type), sequence (Q9Y5Z0 21-518): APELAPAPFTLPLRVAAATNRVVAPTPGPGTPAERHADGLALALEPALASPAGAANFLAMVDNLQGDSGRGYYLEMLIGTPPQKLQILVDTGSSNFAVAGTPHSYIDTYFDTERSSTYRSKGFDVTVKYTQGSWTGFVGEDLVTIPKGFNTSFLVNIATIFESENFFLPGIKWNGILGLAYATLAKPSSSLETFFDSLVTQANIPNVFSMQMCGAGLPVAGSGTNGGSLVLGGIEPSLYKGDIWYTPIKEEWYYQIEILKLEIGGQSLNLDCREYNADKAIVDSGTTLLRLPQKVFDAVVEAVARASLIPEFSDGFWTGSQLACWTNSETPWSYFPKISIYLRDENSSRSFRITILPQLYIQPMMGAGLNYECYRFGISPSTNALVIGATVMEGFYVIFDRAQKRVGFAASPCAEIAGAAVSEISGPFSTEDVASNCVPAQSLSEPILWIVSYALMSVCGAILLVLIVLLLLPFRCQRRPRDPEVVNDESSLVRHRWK

B1: Nanobody XA4815 (VHH)
VHH: QVQLQESGGGLVQAGGSLRLSCAASGFTFSRAAMRWVRRAPERGLEWVANINAGDGSASYADFVKGRFTASRDKAGNRLYLQMDNLRPNDTAVYYCIYNGHRGQGTQVTVSS
Consider B1, for which the binding result is reported as “binds”.
